Non-standard residues stand in square brackets, D forms with d. No end group written: not given here. Dopa = N[C@@H](Cc1ccc(O)c(O)c1)C(=O)O
Experiments:
[1] = target: T1, guinea pig liver transglutaminase (guinea pig, UniProt P08587 2-690); experiment: cell-based or functional assay
T1 sequence (looked up): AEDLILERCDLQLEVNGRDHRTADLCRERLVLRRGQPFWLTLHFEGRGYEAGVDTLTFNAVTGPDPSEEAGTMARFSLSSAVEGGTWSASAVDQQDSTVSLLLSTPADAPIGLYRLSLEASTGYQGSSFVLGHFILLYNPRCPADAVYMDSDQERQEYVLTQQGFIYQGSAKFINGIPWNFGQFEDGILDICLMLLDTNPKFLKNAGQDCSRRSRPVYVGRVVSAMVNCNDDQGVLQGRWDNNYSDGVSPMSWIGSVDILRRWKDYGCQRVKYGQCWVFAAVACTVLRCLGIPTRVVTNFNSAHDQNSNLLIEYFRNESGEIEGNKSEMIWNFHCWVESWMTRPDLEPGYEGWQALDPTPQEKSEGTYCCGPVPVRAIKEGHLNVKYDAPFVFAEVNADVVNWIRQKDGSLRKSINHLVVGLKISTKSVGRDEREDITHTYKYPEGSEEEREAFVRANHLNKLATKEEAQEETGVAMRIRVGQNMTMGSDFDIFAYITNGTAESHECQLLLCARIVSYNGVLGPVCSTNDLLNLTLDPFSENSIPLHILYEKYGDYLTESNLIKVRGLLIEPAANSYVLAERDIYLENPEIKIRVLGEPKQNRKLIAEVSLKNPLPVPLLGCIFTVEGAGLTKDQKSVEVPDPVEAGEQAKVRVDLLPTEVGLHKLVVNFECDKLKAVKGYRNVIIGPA

[2] = target: T2, guinea pig liver transglutaminase (UniProt P08587); experiment: Substrate specificity: TGase-catalysed cross-linking of peptide with dansyl labeled substrate, RP-HPLC; format: biochemical; conditions: peptide concentration 0.05–50 mM, enzyme 0.05 U/ml, reaction time 30 min
T2 construct: Transglutaminase from guinea pig liver, Boc-L-Lys(Boc)-OH, and N-Boc-L-DOPA dicyclohexylammonium salt was purchased from Sigma Chemical Company; purchased Sigma Chemical Company (St. Louis, Mo.); host or cells: guinea pig liver (tissue-derived enzyme)
T2 sequence (P08587 1-690): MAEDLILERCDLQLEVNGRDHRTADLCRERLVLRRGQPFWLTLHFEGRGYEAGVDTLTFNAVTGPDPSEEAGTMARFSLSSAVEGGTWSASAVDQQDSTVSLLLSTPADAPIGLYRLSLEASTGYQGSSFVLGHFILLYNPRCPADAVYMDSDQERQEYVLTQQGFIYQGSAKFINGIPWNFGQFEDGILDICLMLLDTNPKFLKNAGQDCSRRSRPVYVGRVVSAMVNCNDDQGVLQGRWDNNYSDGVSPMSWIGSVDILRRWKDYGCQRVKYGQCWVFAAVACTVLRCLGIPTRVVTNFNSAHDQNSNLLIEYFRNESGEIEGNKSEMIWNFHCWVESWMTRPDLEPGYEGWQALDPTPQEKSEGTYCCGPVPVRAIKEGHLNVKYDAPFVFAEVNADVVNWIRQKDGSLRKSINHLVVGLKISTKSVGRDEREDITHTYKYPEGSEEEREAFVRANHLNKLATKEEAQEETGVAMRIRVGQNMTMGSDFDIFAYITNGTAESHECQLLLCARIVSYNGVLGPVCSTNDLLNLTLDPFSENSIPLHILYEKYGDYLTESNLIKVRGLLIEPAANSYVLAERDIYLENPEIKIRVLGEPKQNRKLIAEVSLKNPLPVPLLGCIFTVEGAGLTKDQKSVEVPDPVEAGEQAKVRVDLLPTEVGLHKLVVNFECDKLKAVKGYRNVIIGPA
Protocol: For acyl donor attention was focused on peptides containing two to about 5 contiguous glutaminyl (e.g., Gln residues), whereas for acyl acceptor a variety of residues were placed near or adjacent Lys. The peptides were assayed as TGase substrates by monitoring the rate of cross-linking reaction with a known dansyl labeled substrate. The use of fluorescently labeled compounds and RP-HPLC analysis with the aid of LC-ESI/MS, allowed for identification of products and comparison of the kinetic constants of the candidate peptides. The specificity (kcat/Km, app) values determined under identical experimental conditions reflect the relative specificity of the enzyme toward the substrates; peptides with higher specificities are better substrates for TGase enzyme, indicating the enzyme-catalyzed cross-linking reaction of that peptide will proceed more rapidly.
Substrate Specificity. […] All reaction products were characterized by LC-ESI/MS (Table 3) and quantitatively analyzed by RP-HPLC. Kinetic constants (Table 4a–b and FIG. 6) were calculated from two methods: fit of the initial rates versus substrate concentrations to the Michaelis-Menten equation using the SigmaPlot® 2000 program with Enzyme Kinetics Module (SPSS Inc., IL); and graphing of the kinetic data using the direct linear plot. […]

[3] = target: T3, FKG-NH2
T3 chain: FKG

[4] = target: T4, Ac-GQQQLG-NH2
T4 chain: GQQQLG

[5] = target: T5, DOPA-FKG-NH2
T5 chain: XFKG

[6] = target: T6, Ac-KG-NH2
T6 chain: KG

[7] = target: T7, NH2-GQLKHLEQQEG-NH2
T7 chain: GQLKHLEQQEG

[8] = target: T8, DOPA-LKG-NH2
T8 chain: XLKG

[9] = target: T9, Ac-FKG-NH2
T9 chain: FKG

[10] = target: T10, DOPA-GQQQLG-NH2
T10 chain: XGQQQLG

[11] = target: T11, LKG-NH2
T11 chain: LKG

[12] = target: T12, Ac-LKG-NH2
T12 chain: LKG

DOPA-FKG-NH2 (peptide)
fold increase in specificity against Ac-FKG-NH2 [1]: 2.4 fold | fold increase in specificity against Ac-KG-NH2 [1]: 100 fold

DOPA-LKG-NH2 (peptide)
fold increase in specificity against Ac-KG-NH2 [1]: 100 fold | fold increase in specificity against Ac-LKG-NH2 [1]: 2.4 fold

DOPA-Lys-Gly-NH2 ([Dopa]-Lys-Gly-NH2; N-terminus assumed; SMILES NCCCC[C@H](NC(=O)[C@@H](N)Cc1ccc(O)c(O)c1)C(=O)NCC(N)=O) [Peptide 4]
cross-linking product detection [2]: No cross-linking product was detected

Ac-Phe-Lys-Gly-NH2 [Ac-FKG-NH2]
fold increase in specificity against FKG-NH2 [1]: ~10 fold

B1: guinea pig liver transglutaminase (protein)
chain: T1 sequence (looked up)
Km, app [3]: 498 µM | Vmax, app [3]: 1.7 µM/min | kcat [3]: 0.51 s⁻¹ | kcat/Km, app [3]: 1030 M⁻¹ s⁻¹ | Km, app [4]: 119 µM | Vmax, app [4]: 1.8 mM/min | kcat [4]: 0.0667 s⁻¹ | kcat/Km, app [4]: 568 M⁻¹ s⁻¹ | substrate properties (acyl donor) [4]: all three designed Gln peptides exhibiting good substrate properties | Km, app [5]: 17 µM | Vmax, app [5]: 1.25 µM/min | kcat [5]: 0.375 s⁻¹ | kcat/Km, app [5]: 22100 M⁻¹ s⁻¹ | Km, app [6]: 872 µM | Vmax, app [6]: 1.02 µM/min | kcat [6]: 0.153 s⁻¹ | kcat/Km, app [6]: 177 M⁻¹ s⁻¹ | Km, app [7]: 593 µM | Vmax, app [7]: 12.5 mM/min | kcat [7]: 0.468 s⁻¹ | kcat/Km, app [7]: 788 M⁻¹ s⁻¹ | substrate properties (acyl donor) [7]: all three designed Gln peptides exhibiting good substrate properties | Km, app [8]: 19.5 µM | Vmax, app [8]: 1.28 µM/min | kcat [8]: 0.383 s⁻¹ | kcat/Km, app [8]: 19600 M⁻¹ s⁻¹ | Km, app [9]: 46.9 µM | Vmax, app [9]: 1.46 µM/min | kcat [9]: 0.438 s⁻¹ | kcat/Km, app [9]: 9330 M⁻¹ s⁻¹ | Km, app [10]: 367 µM | Vmax, app [10]: 7.8 mM/min | kcat [10]: 0.293 s⁻¹ | kcat/Km, app [10]: 798 M⁻¹ s⁻¹ | substrate properties (acyl donor) [10]: all three designed Gln peptides exhibiting good substrate properties | Km, app [11]: 609 µM | Vmax, app [11]: 1.64 µM/min | kcat [11]: 0.492 s⁻¹ | kcat/Km, app [11]: 807 M⁻¹ s⁻¹ | Km, app [12]: 56 µM | Vmax, app [12]: 1.5 µM/min | kcat [12]: 0.45 s⁻¹ | kcat/Km, app [12]: 8030 M⁻¹ s⁻¹

Leu-Lys-Gly-NH2 [LKG-NH2]
fold increase in specificity against Ac-KG-NH2 [1]: ~5 fold

Ac-Leu-Lys-Gly-NH2 [Ac-LKG-NH2]
fold increase in specificity against LKG-NH2 [1]: ~10 fold

Phe-Lys-Gly-NH2 [FKG-NH2]
fold increase in specificity against Ac-KG-NH2 [1]: ~5 fold

— US7208171B2, “Injectable and bioadhesive polymeric hydrogels as well as related methods of enzymatic preparation” (Northwestern University, priority 2002, dated 2007)
